From the nanobody polyreactivity screen of Harvey et al. (2022)

Assay: yeast display, Sf9 membrane polyspecificity reagent, FACS + sequencing; frameworks hold sequencing errors
Outline: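 Polyreactivity labels are assigned by the sorting gate from which each nanobody was recovered. The gates were low and high (top ~1%), set on anti-HA fluorescence for expression and streptavidin fluorescence for reagent binding. Before sorting, galactose-induced (36–48 hours) yeast display cells were stained for 1 hour at 4 °C with 10% biotinylated, detergent-solubilized Sf9 membrane reagent.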

Sequence	polyreactivity (PSR sort gate)
QVQLVESGGGLVQAGGSLRLSCAASGLIFKGYVMGWYRQAPGKERELVAAISRRGGSTYYADSVKGRFTISRDNAKNTVYLQMNSLKPEDTAVYYCATEVYDIDGWWGYDYWGQGTQVTVSS	high polyreactivity
QVQLVESGGGLVQAGGSLRLSCAASGLIFKKYTMGWYRQAPGKERELVASISKSGGSTYYADSVKARFTISRDNAKNTVYLQMNSLKPEDTAVYYCAVGSTDRVSAQGSYFTYDYWGQVTQVTVSS	low polyreactivity
QVQLVESGGGLVQAGGSLRLSCAASGLIFKRYAMGWYRQAPGKERELVAAISYSGGSTYYADSVKGRFTISRDNAKNTVYLQMNSLKPEDTAVYYCATVYYHRFDYWGQGTQVTVSS	high polyreactivity
QVQLVESGGGLVQAGGSLRLSCAASGLIFLAYTMGWYRLAPGKVRELVAAISYSDGSTYYADSVKARFTISRDNANNTVYVQMNSLKPEDTAVYYCAARPRPPLRSYDYWGQGTQVTVSA	low polyreactivity
QVQLVESGGGLVQAGGSLRLSCAASGLIFLQYVMGWSRQAPGKEREFVATITDDGDTTYYADSVKGRFTISRDNAKNTVYLQMNSLKPEDTAVYYCAADAEGSASKYDYWGQGTQVTVSS	low polyreactivity
QVQLVESGGGLVQAGGSLRLSCAASGLIFLVNAMGWYRQAPGKERELVAAIDRDGGITYADSVKGRFTISRDNAKNTVYLQMNSQKPEDTAVYYCAADPSSYGRFTYDYWGQGTQVTVSS	low polyreactivity
QVQLVESGGGLVQAGGSLRLSCAASGLIFLYYAMGSYRQAPGKERELVAAIRTNYADSVKGRFTISRDNAKNTVSLQMNSLKPEDTAVYYCIAVSGDSGDYWGQGTQVTVSS	low polyreactivity
QVQLVESGGGLVQAGGSLRLSCAASGLIFLYYTMGWYRQAPGKERELVAAISSAGRTNYADSVKGRFTISRDNAKNTVYLQMNSLKPEDTAVYYCNADGGWWARYGYWGQGTQVTVSS	low polyreactivity
QVQLVESGGGLVQAGGSLRLSCAASGLIFNWNDMGWYRQAPGKERELVAAISGDGGITYYADSVKGRFTISRDNAKNTVFLQMNSLKPEDTAVYYCNAGFTWGDWYDYWGQGTQVTVSS	low polyreactivity
QVQLVESGGGLVQAGGSLRLSCAASGLIFPANAMGWYRPAPGKERELVAAISWRGSSTYYADSVKGRFTISRDNAKNTVYLQMNSLKPEDTAVYYCNVYVRSGSLRDIGYKYDYWGQGTQVTVSS	high polyreactivity
QVQLVESGGGLVQAGGSLRLSCAASGLIFPRYTMGWYRQAPGKERELVAAIRGTGGSTYYADSVKGRFTISRDNAKNTVYLQMNSLKPEDTAVYYCATRGKSHGQQFNYWGQGTQVTVSS	high polyreactivity
QVQLVESGGGLVQAGGSLRLSCAASGLIFPSYVMGWYRLAPGKERELVAGITIGDRTYYADSVKGRFTISRDNAKNTVYLQMNSLKPEDTAVYYCAAVYTYAGRRFGYWGQGTQVTVSS	high polyreactivity
QVQLVESGGGLVQAGGSLRLSCAASGLIFPWNAMGWYRQAPGKERELVAAINGRDGSTYYADSVKGRFTISRDNAKNTVYLQMNSLKPEDTAVYYCAKGPSGVRTYREYDSWGQGTQVTVSS	low polyreactivity
QVQLVESGGGLVQAGGSLRLSCAASGLIFQFNAKGWYTQAPGKDREFVAAISGRADSTYYADSVKGRFTISRDNAKNTVYLQMNSLKPEDTAVYYCAALAYYHRYEYWGQGTQVTVSS	low polyreactivity
QVQLVESGGGLVQAGGSLRLSCAASGLIFQHNAMGWYRQAPGKERELVAAISRSAGSTYYADSVKGRFTISRDNAKNTVYLQMNSLKPEDTAVYYCAKRPTPTSKYDTVRYGYWGQGTQVTVSS	low polyreactivity
QVQLVESGGGLVQAGGSLRLSCAASGLIFQLYAMGWSRQAPGKERELLAAITIRDGSTYYADSVKGRFTISRDNAKNTVYFQMNSLKPEDTAFYFCAAEPVYYYPWSQYDYWGQGTQVTVSS	high polyreactivity
QVQLVESGGGLVQAGGSLRLSCAASGLIFQSYAMGWYRQAPGKERELVAVITWSGTSTYADSVKGRFTISRDNAKNTVYLQMNSLKPEDTAVYYCAASKYGSFTNFGYWGQGTQVTVSS	low polyreactivity
QVQLVESGGGLVQAGGSLRLSCAASGLIFQTYAMGWYRQAPGKERELVATISGSTGGTYYADSVKGRFTISRDNAKNTVYLQMNSLKPEDTAVYYCNASVFQSEYDYWGQGTQVTVSS	low polyreactivity
QVQLVESGGGLVQAGGSLRLSCAASGLIFQVYTMGWYRQAPGKERELVAAISWDAGSTYYADSVKGRFTISRDNAKNTVYLLMNSLKPEDTAVYYCATTQYTTYGRRYYWGQGTQVTVSS	high polyreactivity
QVQLVESGGGLVQAGGSLRLSCAASGLIFQYYVMGWYRQAPGKERQLVAAISARGGGTYYADSVKGRFTISRDNAKNTVYLQMNSLKPEDTAVYYCAADPVYAGPGYDYWGQGTQVTVSS	high polyreactivity
QVQLVESGGGLVQAGGSLRLSCAASGLIFRANSMGWYRQPPGKVRELVAAISSGGSTYYADSVKGRFTISRDNAKNTVYLQMNSLIPEDTAFYYCAALGQSPSRFGYWGQGTQVTVSS	low polyreactivity
QVQLVESGGGLVQAGGSLRLSCAASGLIFRGYAMGWYRQAPGKERELVAAISRSGGRTYYADSVKGRYTISRDNAKNTVYLQMNSLKPVDTAVYYCAAQWLYLEYDYWGQGTQVTVSS	high polyreactivity

Sequence	polyreactivity (PSR sort gate)
QVQLVESGGGLVQAGGSLRLSCAASGLIFRHYAMGWYRQAPGKERELVDAITRSGGSTNYADSVKGRFTISRDNAKNTVYLQMNSLKPEDTAVYYCNAGIRYFVVGRSSYDYWGQGTQVTVSS	low polyreactivity
QVQLVESGGGLVQAGGSLRLSCAASGLIFRHYTMGWYRQAPGKERELVAAISRSGGSTRYADSVKGRFTISRDNAKNTVYLQMNSLKPEDTAVYYCAASSVKSTWTLDYWGQGTQVTVSS	high polyreactivity
QVQLVESGGGLVQAGGSLRLSCAASGLIFRKNAMGWDRQAPGKERELVAAMSYNGASTYYADSVKGRFTISRDNAKNTVYLQMNSLKPEDTAVYYCAAYAGYSDQARYYYWGQGTQVTVSS	high polyreactivity
QVQLVESGGGLVQAGGSLRLSCAASGLIFRPYAMGWYRQAPGKERELVAAISSSGGSTYYADSVKGRFTISRDNAKNTVYLQMNSLKPEDTAVYYCATYFARGYNSWGQGTQVTVSS	high polyreactivity
QVQLVESGGGLVQAGGSLRLSCAASGLIFRPYDMGWYRQAPGKERELVAAISNGDSTNYADSVKGRFTISRDNAKNTVYLQMNSLKPEDTAVYYCAAEDYYIYREPYDYWGQGTQVTVSS	low polyreactivity
QVQLVESGGGLVQAGGSLRLSCAASGLIFRPYTMGWYRQAPGKERELVAAISRSGGSTYYADSVKGRFTISRDNAKNTVYLQVNSLKPEDTAVYYCNAVPRRQGFNYWGQGTQVTVSS	high polyreactivity
QVQLVESGGGLVQAGGSLRLSCAASGLIFRSYAMGWYRQAPGKERELVARISIRGGSTYYADSVKGRFTISRDNAKNTVYLQLNSLKPEVTAVYYCAAVGYFGGYRYDYWGHGTQVTVSS	high polyreactivity
QVQLVESGGGLVQAGGSLRLSCAASGLIFRTNAMGGYRQAPGKERELVAAISWSTGTTYYADSVKGRFTISRDIAKNTVYFQMNSVNPEDTAVSYCARTLRWTYRYGYWGQGTQVTVSS	high polyreactivity
QVQLVESGGGLVQAGGSLRLSCAASGLIFRVNAMGWYRQAPGKERELVASISVSGGSTYYADSVKGRFTISRDNAKNTVYLQMNSLKPEDTAVYYCAASQYHKGYLFSYPYEYDYWGQGTQVTVSS	low polyreactivity
QVQLVESGGGLVQAGGSLRLSCAASGLIFRWYAMGWYRQAPGKERELVAAISRRGGTTNYADSVKGRFTISRDNAKNTVYLQMNSLKPEDTAVYYCAADYQSVGGAEYDYWGQGTQVTVSS	high polyreactivity
QVQLVESGGGLVQAGGSLRLSCAASGLIFRYKAMGWYRQAPGKERELVAAISRSRGTTYYADSVKGRFTISRDNAKNTVYLQMNSLKPEDTAVYYCATRISQSYYNYGYWGQGTQVTVSS	high polyreactivity
QVQLVESGGGLVQAGGSLRLSCAASGLIFRYYAMGWYRQAPGKERELVAAISKSGGRTYYADSVKGRFTISRDNAKNTVYLQMNSLKPEDTAVYYCATGVRGYVGWSSALYYEYDYWGQGTQVTVSS	high polyreactivity
QVQLVESGGGLVQAGGSLRLSCAASGLIFRYYAMGWYRQAPGKERELVATIRGGGSTYYADSVKGRFTISRDNAKNTVYLQMNSLKPEDTAVYYCAADPYSYGARGARGDYWGQGTQVTVSS	low polyreactivity
QVQLVESGGGLVQAGGSLRLSCAASGLIFRYYAMGWYRQAPGKERELVAVISRRGDSTYYADSVKGRFTISRDNAKNTVYLQMNSLKPEDTAVYYCAAQAFVSYFKFRGGYWGQGTQVTVSS	high polyreactivity
QVQLVESGGGLVQAGGSLRLSCAASGLIFSDNAMGWYRQAPGKEREFVASISDSGTTTYYADSVKGRFTISRDNAKNTVYLQMNSLKPEDTAVYDCNARPGQSGARFGYWGQGTQVTVSS	high polyreactivity
QVQLVESGGGLVQAGGSLRLSCAASGLIFSGYAMGWYRQAPGKDRELVAAITWSGGRTYADSVKGRFTISRDNAKNTVYLQMNSLKPEDTAVYYCNADAYIDYWPYTWDYDYWGQGTQVTVSS	high polyreactivity
QVQLVESGGGLVQAGGSLRLSCAASGLIFSPYAMGWYRQAPGKEREFVAAITSRGGTYYADSVKGRFTISRDNAKNTVYLQMNSLKPEDTAVYYCAAKSLYSKRQQYEYWGQGTQVTVSS	low polyreactivity
QVQLVESGGGLVQAGGSLRLSCAASGLIFSRYAMGWYRQAPGKERELVAVISWSGGRTYYADSVKGRFTISRDNAKNTVYLQMNSLKPEDTAVYYCAARSYGGQGVRMDYWGQGTQVTVSS	high polyreactivity
QVQLVESGGGLVQAGGSLRLSCAASGLIFSSNAMGWYRQAPGKERELVAAISRRGGNTYYADSVKGRFTISRDNAKNTVYLQMNSLKPEDTAVYYCAIRYVGRGTSYQDYYWGLGTQVTVSS	high polyreactivity
QVQLVESGGGLVQAGGSLRLSCAASGLIFSSYVMGWYRQAPGKERELVAAISSKGGSTYYADSVKGRFTISRDNAKNTVYLQMNSLKPEDTAVYYCAARVYYPVRYGYWGQGTQVTVSS	high polyreactivity
QVQLVESGGGLVQAGGSLRLSCAASGLIFSYNAMGWYRQAPGKERELVAAISYSGGSTYYADSVKGRFTNSRDNAKNTVYLQMNSLKPEDTAVYYCAAVWRRQGSAYVGSYGYDYWGQGTQVTVSS	high polyreactivity
